Kd data for one molecule are collected here from patent publication US20160367664A1 (AGENCY FOR SCIENCE TECHNOLOGY AND RESEARCH, published 2016).

In experiment [1] the target is T1, recombinant human interleukin 2 receptor β (IL-2Rβ; CD122) (human, UniProt P14784 27-240).
T1 construct: Recombinant chain immobilised on the SPR chip and used as antigen in the ELISAs; also called human IL-2Rβ
T1 sequence (looked up): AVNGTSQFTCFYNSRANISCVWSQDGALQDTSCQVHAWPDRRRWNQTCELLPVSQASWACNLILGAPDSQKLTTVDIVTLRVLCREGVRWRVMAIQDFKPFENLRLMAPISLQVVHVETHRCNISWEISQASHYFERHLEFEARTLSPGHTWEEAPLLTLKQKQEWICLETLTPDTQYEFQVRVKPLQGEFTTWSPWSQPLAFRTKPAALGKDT
Briefly: SPR, recombinant receptor chain immobilised on the chip, antibody flowed over.

Experiment [2] addresses T2, recombinant human common γ chain (γc; CD132) (human, UniProt P31785 23-262).
T2 construct: Recombinant chain immobilised on the SPR chip and used as antigen in the ELISAs; also called IL-2Rγc; IL-2Rγ
T2 sequence (looked up): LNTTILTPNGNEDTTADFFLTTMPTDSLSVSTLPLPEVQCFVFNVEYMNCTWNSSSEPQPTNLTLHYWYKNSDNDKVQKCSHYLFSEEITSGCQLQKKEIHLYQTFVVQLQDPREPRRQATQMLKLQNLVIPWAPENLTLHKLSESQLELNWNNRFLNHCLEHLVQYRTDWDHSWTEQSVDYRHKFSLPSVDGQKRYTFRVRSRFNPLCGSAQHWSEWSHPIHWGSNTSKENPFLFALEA
The description is as above.

B1: bispecific anti-IL-2Rβ/γc antibody P2D12/P1A3 (bispecific antibody)
chain 1: HVQLVETGGGLVQPGGSLRLSCAASGFTFSSYAMSWVRQAPGKGLEWVSAISGSGGSTYYADSVKGRFTISRDNSKNTLYLQMNSLRAEDTAVYYCARDLGDYWGQGTLVTVSSGGGGSGGGGSGGGGSDIQLTQSPSSLSASVGDRVTITCQASQDIGNYLNWYQLKPGKAPKLLIYDASNLETGVPSRFSGSGSGTDFTFTISSLQPEDIATYYCLQLYDYPLTFGGGTKVEIK
chain 2: not shown
Take B1: the results for the Kd in experiment [1] and in experiment [2] were 181 nM and 78.7 nM, respectively.
